Measurements taken from publication PMC8748612, “Maximizing response to intratumoral immunotherapy in mice by tuning local retention” (Nature Communications, 2022).
Residue numbers refer to the chain shown, from its start. Numbers in names are those of the source. Like-named read-outs stand apart in the source and are kept apart here.

Assays:
[1] = target: Collagen I (Gibco), coated on 96-well plates (UniProt P02454); test: ELISA; Collagen I (Gibco) coated 96-well plates; LAIR-fusion proteins in PBSTA (PBS, 0.1% BSA, 0.05% Tween-20) for 4 h at room temperature; detected with HRP-conjugated polyclonal anti-6xHis
collagen type I = target: T1, collagen type I (UniProt P02454 152-1207; P02466 86-1125); test: ELISA; Collagen I (Gibco) coated 96-well plates; LAIR-MSA fusion proteins in PBSTA for 4 h at room temperature; detected with HRP-conjugated anti-6xHis; mean, n = 2
T1 construct: collagen type I, alpha-1 chain; collagen type I, alpha-2 chain; two alpha-1 chains and one alpha-2 chain, and rat as the source, are surmised; also called Collagen I (Gibco); native collagen; source: bought: Gibco

[2] = target: Collagen I (Gibco), coated on 96-well plates (UniProt P02454 152-1207; P02466 86-1125); test: ELISA
Target sequence in this assay (P02454 152-1207, chain 1 of 2): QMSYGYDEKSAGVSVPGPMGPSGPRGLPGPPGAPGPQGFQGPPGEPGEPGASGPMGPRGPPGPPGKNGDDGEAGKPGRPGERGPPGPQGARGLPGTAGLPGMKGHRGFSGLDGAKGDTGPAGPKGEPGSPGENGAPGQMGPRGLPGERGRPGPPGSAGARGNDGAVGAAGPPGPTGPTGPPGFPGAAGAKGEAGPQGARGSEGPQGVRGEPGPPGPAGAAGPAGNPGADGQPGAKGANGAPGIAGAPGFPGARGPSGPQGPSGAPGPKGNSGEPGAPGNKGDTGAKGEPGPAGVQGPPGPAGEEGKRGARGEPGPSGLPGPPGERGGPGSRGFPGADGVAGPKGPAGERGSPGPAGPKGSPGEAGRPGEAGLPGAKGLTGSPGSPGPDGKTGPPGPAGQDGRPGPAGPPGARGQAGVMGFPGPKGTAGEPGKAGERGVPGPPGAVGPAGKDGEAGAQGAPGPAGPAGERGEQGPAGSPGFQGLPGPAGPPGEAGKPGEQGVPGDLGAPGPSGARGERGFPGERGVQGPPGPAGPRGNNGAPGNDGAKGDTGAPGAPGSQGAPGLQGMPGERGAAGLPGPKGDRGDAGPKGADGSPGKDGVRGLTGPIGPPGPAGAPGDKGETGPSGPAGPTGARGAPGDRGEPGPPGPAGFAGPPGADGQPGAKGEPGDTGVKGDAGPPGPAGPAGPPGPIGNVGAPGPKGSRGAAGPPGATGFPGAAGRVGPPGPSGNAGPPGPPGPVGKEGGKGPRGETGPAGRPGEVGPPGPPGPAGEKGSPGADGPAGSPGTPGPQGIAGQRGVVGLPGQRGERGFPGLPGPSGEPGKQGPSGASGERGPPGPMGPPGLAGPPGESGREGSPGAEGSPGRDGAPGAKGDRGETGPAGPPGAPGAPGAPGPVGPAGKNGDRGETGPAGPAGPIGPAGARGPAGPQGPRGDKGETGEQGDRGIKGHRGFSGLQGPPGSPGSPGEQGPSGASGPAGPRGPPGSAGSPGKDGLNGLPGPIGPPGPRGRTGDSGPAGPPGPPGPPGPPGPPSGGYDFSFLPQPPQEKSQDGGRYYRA
Target sequence in this assay (P02466 86-1125, chain 2 of 2): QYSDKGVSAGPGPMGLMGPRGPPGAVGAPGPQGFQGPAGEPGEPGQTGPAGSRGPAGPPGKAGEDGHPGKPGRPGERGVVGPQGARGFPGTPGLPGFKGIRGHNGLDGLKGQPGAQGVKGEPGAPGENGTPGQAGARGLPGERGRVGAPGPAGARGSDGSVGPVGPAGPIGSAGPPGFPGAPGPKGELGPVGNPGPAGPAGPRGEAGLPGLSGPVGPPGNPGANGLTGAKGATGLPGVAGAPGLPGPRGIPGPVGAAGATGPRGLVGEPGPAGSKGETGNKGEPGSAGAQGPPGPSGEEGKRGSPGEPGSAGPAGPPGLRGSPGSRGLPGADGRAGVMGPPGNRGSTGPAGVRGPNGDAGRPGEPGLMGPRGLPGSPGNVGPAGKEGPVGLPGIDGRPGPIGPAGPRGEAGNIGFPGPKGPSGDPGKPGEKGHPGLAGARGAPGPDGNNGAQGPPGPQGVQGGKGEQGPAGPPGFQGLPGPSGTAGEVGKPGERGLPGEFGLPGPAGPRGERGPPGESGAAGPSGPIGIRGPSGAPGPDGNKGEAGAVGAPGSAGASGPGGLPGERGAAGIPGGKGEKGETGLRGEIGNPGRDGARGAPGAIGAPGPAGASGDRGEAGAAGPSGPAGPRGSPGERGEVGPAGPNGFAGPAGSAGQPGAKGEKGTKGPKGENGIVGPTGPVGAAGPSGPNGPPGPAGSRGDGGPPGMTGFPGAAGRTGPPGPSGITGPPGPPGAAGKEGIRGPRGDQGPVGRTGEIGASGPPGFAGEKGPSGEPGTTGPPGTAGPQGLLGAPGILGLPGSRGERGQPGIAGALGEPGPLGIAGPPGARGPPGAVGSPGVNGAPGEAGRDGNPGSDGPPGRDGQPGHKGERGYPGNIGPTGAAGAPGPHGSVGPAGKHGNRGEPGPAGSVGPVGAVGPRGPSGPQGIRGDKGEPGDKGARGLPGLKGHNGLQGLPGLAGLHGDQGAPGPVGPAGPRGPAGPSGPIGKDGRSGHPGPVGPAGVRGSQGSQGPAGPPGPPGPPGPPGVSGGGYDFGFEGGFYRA

[3] = target: T2, alternatively spliced extra-domain B (EIIIB) domain of fibronectin (Mus musculus (assumed; murine B16F10 …, UniProt P11276); test: not stated; Kd for EIIIB printed in the discussion; Supplementary Fig. 18b is pointed to
T2 construct: fibronectin, alternatively spliced EIIIB (extra-domain B) domain; also called FN-EIIIB

[4] = target: T3, Collagen I (Gibco), coated on 96-well plates (UniProt P02454 152-1207; P02466 86-1125); test: ELISA; Collagen I (Gibco) coated 96-well plates; LAIR-fusion proteins in PBSTA (PBS, 0.1% BSA, 0.05% Tween-20) for 4 h at room temperature; detected with HRP-conjugated polyclonal anti-6xHis; details: both partners purified
T3 construct: collagen type I, alpha-1(I) chain; collagen type I, alpha-2(I) chain; the two chains and rat as species are surmised; also called native collagen; collagen type I; source: bought: Gibco (collagen I coated 96-well plates)
T3 sequence (P02454 152-1207, chain 1 of 2): as the sequence (P02454 152-1207, chain 1 of 2) above
T3 sequence (P02466 86-1125, chain 2 of 2): as the sequence (P02466 86-1125, chain 2 of 2) above

T1 sequence (P02454 152-1207, chain 1 of 2): as the sequence (P02454 152-1207, chain 1 of 2) above
T1 sequence (P02466 86-1125, chain 2 of 2): as the sequence (P02466 86-1125, chain 2 of 2) above
Chain of Collagen I (Gibco), coated on 96-well plates (UniProt P02454) (P02454 152-1207, chain 1 of 2): as the sequence (P02454 152-1207, chain 1 of 2) above
Chain of Collagen I (Gibco), coated on 96-well plates (UniProt P02454) (P02466 86-1125, chain 2 of 2, further chain): as the sequence (P02466 86-1125, chain 2 of 2) above

LAIR-IL2-his (from UniProt Q8BG84 22-144)
Kd [1]: 220 nM

LAIR-MSA (from UniProt P07724 25-608)
Kd (collagen type I): 17 nM

LAIR-LAIR-MSA^H464Q-IL2-his (from UniProt Q8BG84 22-144; Q8BG84 22-144)
Kd [1]: 13 nM

B1: LAIRx-his (domain or fragment)
chain: QEGSLPDITIFPNSSLMISQGTFVTVVCSYSDKHDLYNMVALAKDGSTFMEKSTEPYKTEDEFEIGPVNETITGHYSCIYSKGITWSERSKTLELKVIKENVIQTPAPGPTSDTSWLKTYSIY
Kd [2]: > 1000 nM

B2: LAIR-his (domain or fragment)
chain: B1 chain with A41R, A43E
Kd [2]: 102 nM

B3: LAIRx-LAIRx-MSA^H464Q-his (other)
chain: QEGSLPDITIFPNSSLMISQGTFVTVVCSYSDKHDLYNMVALAKDGSTFMEKSTEPYKTEDEFEIGPVNETITGHYSCIYSKGITWSERSKTLELKVIKENVIQTPAPGPTSDTSWLKTYSIYQEGSLPDITIFPNSSLMISQGTFVTVVCSYSDKHDLYNMVALAKDGSTFMEKSTEPYKTEDEFEIGPVNETITGHYSCIYSKGITWSERSKTLELKVIKENVIQTPAPGPTSDTSWLKTYSIYEAHKSEIAHRYNDLGEQHFKGLVLIAFSQYLQKCSYDEHAKLVQEVTDFAKTCVADESAANCDKSLHTLFGDKLCAIPNLRENYGELADCCTKQEPERNECFLQHKDDNPSLPPFERPEAEAMCTSFKENPTTFMGHYLHEVARRHPYFYAPELLYYAEQYNEILTQCCAEADKESCLTPKLDGVKEKALVSSVRQRMKCSSMQKFGERAFKAWAVARLSQTFPNADFAEITKLATDLTKVNKECCHGDLLECADDRAELAKYMCENQATISSKLQTCCDKPLLKKAHCLSEVEHDTMPADLPAIAADFVEDQEVCKNYAEAKDVFLGTFLYEYSRRHPDYSVSLLLRLAKKYEATLEKCCAEANPPACYGTVLAEFQPLVEEPKNLVKTNCDLYEKLGEYGFQNAILVRYTQKAPQVSTPTLVEAARNLGRVGTKCCTLPEDQRLPCVEDYLSAILNRVCLLQEKTPVSEHVTKCCSGSLVERRPCFSALTVDETYVPKEFKAETFTFHSDICTLPEKEKQIKKQTALAELVKHKPKATAEQLKTVMDDFAQFLDTCCKAADKDTCFSTEGPNLVTRCKDALA
Kd [2]: > 1000 nM

B4: LAIR-LAIRx-MSA^H464Q-his (other)
chain: B3 chain with A41R, A43E
Kd [2]: 158 nM

B5: LAIR-LAIR-MSA^H464Q-his (other)
chain: B3 chain with A41R, A43E, A164R, A166E
Kd [2]: 20 nM

B6: LAIR30.w.A V27A,D45G-MSA (other)
chain: QEGSLPDITIFPNSSLMISQGTFVTVACSYSDKHDLYNMVRLEKGGSTFMEKSTEPYKTEDEFEIGPVNETITGHYSCIYSKGITWSERSKTLELKVIKENVIQTPAPGPTSDTSWLKTYSIYEAHKSEIAHRYNDLGEQHFKGLVLIAFSQYLQKCSYDEHAKLVQEVTDFAKTCVADESAANCDKSLHTLFGDKLCAIPNLRENYGELADCCTKQEPERNECFLQHKDDNPSLPPFERPEAEAMCTSFKENPTTFMGHYLHEVARRHPYFYAPELLYYAEQYNEILTQCCAEADKESCLTPKLDGVKEKALVSSVRQRMKCSSMQKFGERAFKAWAVARLSQTFPNADFAEITKLATDLTKVNKECCHGDLLECADDRAELAKYMCENQATISSKLQTCCDKPLLKKAHCLSEVEHDTMPADLPAIAADFVEDQEVCKNYAEAKDVFLGTFLYEYSRRHPDYSVSLLLRLAKKYEATLEKCCAEANPPACYGTVLAEFQPLVEEPKNLVKTNCDLYEKLGEYGFQNAILVRYTQKAPQVSTPTLVEAARNLGRVGTKCCTLPEDQRLPCVEDYLSAILNRVCLLHEKTPVSEHVTKCCSGSLVERRPCFSALTVDETYVPKEFKAETFTFHSDICTLPEKEKQIKKQTALAELVKHKPKATAEQLKTVMDDFAQFLDTCCKAADKDTCFSTEGPNLVTRCKDALA
Kd (collagen type I; both partners purified): 120 nM

B7: LAIR30.w.B F49S-MSA (other)
chain: B6 chain with A27V, G45D, F49S
Kd (collagen type I; both partners purified): 130 nM

B8: LAIR30.w.C E51G-MSA (other)
chain: B6 chain with A27V, G45D, E51G
Kd (collagen type I; both partners purified): 170 nM

B9: LAIR30.d.D E43A-MSA (other)
chain: B6 chain with A27V, E43A, G45D
Kd (collagen type I; both partners purified): 220 nM

B10: LAIR30.w.E F63L-MSA (other)
chain: B6 chain with A27V, G45D, F63L
Kd (collagen type I; both partners purified): 96 nM

B11: LAIR30.w.F S90A-MSA (other)
chain: B6 chain with A27V, G45D, S90A
Kd (collagen type I; both partners purified): 63 nM

B12: NJB2-MSA^H464Q-IL2 (VHH)
VHH: QVQLVETGGGLVQAGGSLRLSCAASGSTFSHNAGGWYRQAPEKQRELVAGISSDGNINYADSVKDRFTISRDNASNTMYLQMNNLKPEDTAVYVCNIRGSYGNTYYSRWGQGTQVTVSS
notes: nanobody NJB2 (15 kD); mouse serum albumin (MSA) with H464Q; interleukin-2 (IL-2); 98 kD; MSA^H464Q incorporated between the nanobody and IL-2; source: suspension HEK293, transfected, purified
Kd [3]: 1 nM

B13: LAIRx-IL2-his (other)
chain: QEGSLPDITIFPNSSLMISQGTFVTVVCSYSDKHDLYNMVALAKDGSTFMEKSTEPYKTEDEFEIGPVNETITGHYSCIYSKGITWSERSKTLELKVIKENVIQTPAPGPTSDTSWLKTYSIYAPTSSSTSSSTAEAQQQQQQQQQQQQHLEQLLMDLQELLSRMENYRNLKLPRMLTFKFYLPKQATELKDLQCLEDELGPLRHVLDLTQSKSFQLEDAENFISNIRVTVVKLKGSDNTFECQFDDESATVVDFLRRWIAFCQSIISTSPQ
Kd [4]: > 1000 nM

B14: LAIRx-LAIRx-MSA^H464Q-IL2-his (other)
chain: QEGSLPDITIFPNSSLMISQGTFVTVVCSYSDKHDLYNMVALAKDGSTFMEKSTEPYKTEDEFEIGPVNETITGHYSCIYSKGITWSERSKTLELKVIKENVIQTPAPGPTSDTSWLKTYSIYQEGSLPDITIFPNSSLMISQGTFVTVVCSYSDKHDLYNMVALAKDGSTFMEKSTEPYKTEDEFEIGPVNETITGHYSCIYSKGITWSERSKTLELKVIKENVIQTPAPGPTSDTSWLKTYSIYEAHKSEIAHRYNDLGEQHFKGLVLIAFSQYLQKCSYDEHAKLVQEVTDFAKTCVADESAANCDKSLHTLFGDKLCAIPNLRENYGELADCCTKQEPERNECFLQHKDDNPSLPPFERPEAEAMCTSFKENPTTFMGHYLHEVARRHPYFYAPELLYYAEQYNEILTQCCAEADKESCLTPKLDGVKEKALVSSVRQRMKCSSMQKFGERAFKAWAVARLSQTFPNADFAEITKLATDLTKVNKECCHGDLLECADDRAELAKYMCENQATISSKLQTCCDKPLLKKAHCLSEVEHDTMPADLPAIAADFVEDQEVCKNYAEAKDVFLGTFLYEYSRRHPDYSVSLLLRLAKKYEATLEKCCAEANPPACYGTVLAEFQPLVEEPKNLVKTNCDLYEKLGEYGFQNAILVRYTQKAPQVSTPTLVEAARNLGRVGTKCCTLPEDQRLPCVEDYLSAILNRVCLLQEKTPVSEHVTKCCSGSLVERRPCFSALTVDETYVPKEFKAETFTFHSDICTLPEKEKQIKKQTALAELVKHKPKATAEQLKTVMDDFAQFLDTCCKAADKDTCFSTEGPNLVTRCKDALAAPTSSSTSSSTAEAQQQQQQQQQQQQHLEQLLMDLQELLSRMENYRNLKLPRMLTFKFYLPKQATELKDLQCLEDELGPLRHVLDLTQSKSFQLEDAENFISNIRVTVVKLKGSDNTFECQFDDESATVVDFLRRWIAFCQSIISTSPQ
Kd [4]: > 1000 nM
